Kd data for one molecule are collected here from article PMC12122859 (Communications Biology, 2025).

The target in experiment [1] is T1, E2 alone (as compared with E1E2) (Hepatitis C virus genotype 1b, strain …).
T1 chain: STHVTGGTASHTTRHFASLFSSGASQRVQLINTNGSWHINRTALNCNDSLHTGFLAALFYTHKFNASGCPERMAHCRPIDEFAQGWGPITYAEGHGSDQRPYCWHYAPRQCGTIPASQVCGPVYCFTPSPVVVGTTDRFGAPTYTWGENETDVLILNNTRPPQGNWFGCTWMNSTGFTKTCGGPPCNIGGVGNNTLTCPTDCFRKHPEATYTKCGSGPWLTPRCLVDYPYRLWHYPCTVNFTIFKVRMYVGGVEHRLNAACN

The target of experiment [2] is membrane-bound recombinant E1E2 (hepatitis C virus (strain not stated)).
Experiment [3] addresses soluble recombinant E1E2 (hepatitis C virus (strain not stated)).

B1: CBH4B (antibody, format not stated, as tested on E1E2 and E2 alone) (antibody, V domains shown)
VH: QIQLVQSGAEVKKPGSSVKVSCRASGGSFGTYGITWVRQAPGQGLEWVGGIVPLFDRPNYAQKFQDRVAITADESTSTAYMELSSLRFDDTAVYYCAREADIVVGGSSYFDSWGQGTLVTVTK
VL: ESVLTQSPGTLSLSPGERATLSCRASQSVSSTYVAWYQQKPGQAPRLLIYDASIRATGVPDRFSGGGSGTDFTLTISRLEPEDFAVYYCQQYGGSPFFGGGTKVEIK
As a reminder, the Kd is a measure of binding affinity in units of concentration. In the case of B1, the Kd is 0.08 nM in experiment [1], 3.1 nM in experiment [2] and 19 nM in experiment [3].
